Patent US9512178B2, “Neurogenic brain-derived neurotrophic factor peptides” (Research Foundation for Mental Hygiene, Inc., priority 2012, dated 2016)

Experiments:
[1] = in vivo; cited from earlier work
[2] = molecular target: T1, TrkB receptor (Mus musculus, UniProt P15209); test: TrkB phosphorylation (Tyr 706) and TrkB level in primary E18 hippocampal cells, with or without K252a; assay type: cell-based; details: 20 ng/ml
T1 construct: endogenous in cells; host or cells: primary hippocampal neurons from embryonic day 18 C57BL/6 mice
Experimental: Peptides were dissolved in water in serial dilutions of 10 mM, 1 mM, 100 μM and 10 μM from which the necessary amount was added directly to the culture medium to a final concentration of 0.05 μM, 1 μM, or 10 μM. The BDNF (Peprotech, NJ, USA) was used as a reference in concentrations of 20 ng/ml (0.79 nM) and 100 ng/ml (3.95 nM). Cycloheximide (CHX) (Sigma-Aldrich, St Louis, Mo., USA) was used for blocking protein synthesis. CHX original stock was 100 mg/ml (355.4 mM) in DMSO; from a second stock of 35.54 mM in DMSO, the dilutions were made to the final concentrations of 100 μM. The K252a (CALBIOCHEM/EMD) was used to inhibit the TrkB Receptor. From a stock of 100 μM in DMSO, K252a was diluted to a final working concentration of 200 nM. The E18 primary hippocampal cells were pre-treated with CHX or K252a 1 h prior to the addition of the peptides or BDNF and a time course of these treatments for 15 min, 60 min and 2 days was studied.
Following treatment in 6-well plates, cells were washed 2× in glucose buffered saline, GBS (5.4 mM KCl, 138 mM NaCl, 22 mM glucose, and 2 mM Na—KPO pH 7.2), and then lysed by 5 min incubation on ice in 100 or 150 μl of ice-cold RIPA buffer (PBS, 1% w/v NP-40 from Fisher Scientific, 0.1% w/v SDS, and 0.5% w/v sodium desoxycholate) containing 1 mM AEBSF (Gold Biotechnology, St. Louis, Mo., USA), 10 μg/ml aprotinin (Sigma-Aldrich, St. Louis, Mo., USA), and 20 μg/ml of leupeptin and pepstatin (US Biochemicals, Cleveland, Ohio, USA), and phosphatase inhibitors: NaF, Na orthovanadate, (3-glycerophosphate, and microcystein (Sigma-Aldrich, St. Louis, Mo., USA). Extracts were prepared by collecting and pooling a minimum of 2 wells by scraping, and lysates were centrifuged at 20,000×g for 10 min at 4° C. Protein concentration of each cell lysate was determined using the BCA kit (Thermo Scientific, Rockford, Ill., USA). The lysates (7.5-20 μg total protein) were separated on 10% SDS-PAGE gels (except for BDNF where 12% gels were employed) and transferred to 0.45 μm PVDF membrane (Pall, Pensacola, Fla., USA) for probing with antibodies as noted. Blots were blocked for 1 hr at 37° C. in 1×TBST (0.05% Tween 20 in TBS) containing 5% w/v blotting grade dry milk (Bio-rad, Hercules, Calif., USA), incubated in primary antibody overnight in blocking buffer at 4° C., washed 3×10 min in TBST at room temperature, followed by incubation with secondary antibody, i.e., peroxidase-conjugated anti-mouse or anti rabbit IgG (Jackson ImmunoResearch Laboratories, West Grove, Pa., USA) diluted in blocking buffer. Blots were washed 3×10 min in TBST and immunoreactive protein bands were visualized with enhanced chemiluminescence (ECL) reagents (Pierce, Rockford, Ill., USA). The ECL films of the blots were scanned and analyzed using Multi Gauge software version 3.0 (Fujifilm, Tokyo, Japan).
The following primary antibodies were used: rabbit polyclonal anti-NFM (1:1000; Chemicon/Millipore, Billerica, Mass., USA); mouse monoclonal anti-NeuN, clone A60 (1:500; Millipore, Billerica, Mass., USA); rabbit polyclonal anti-Tuj-1, (3—III-tubulin (Covance; 1:800, Emeryville, Calif., USA); mouse monoclonal SMI 52 to the adult isoforms of MAP-2, MAP2a,b (1:1000; Covance, Emeryvilly, Calif., USA); rabbit polyclonal anti-Synapsin I (1:2000; Stressgen, Farmingdale, N.Y., USA); rabbit monoclonal anti-PSD95 (1:1000; Cell signaling, Danvers, Mass., USA); anti tau 92e (1:10000); mouse monoclonal anti-BDNF (1:1000; Calbiochem, Gibbstown, N.J., USA); rabbit polyclonal anti-TrkB (total) (1:500; Santa Cruz Biotechnology, Santa Cruz, Calif., USA); rabbit polyclonal anti-pTrkB (Tyr706) (1:400; Santa Cruz Biotechnology, Santa Cruz, Calif., USA), TrkC (1:1000; Cruz Biotechnology, Santa Cruz, Calif., USA); and pTrkY490 (1:500; Upstate USA Inc., Charlottesville, Va., USA). For loading control, the blots were developed with rabbit polyclonal antibody to GAPDH (1:2000; Santa Cruz Biotechnology, Santa Cruz, Calif., USA). […]

[3] = molecular target: T2, TrkC (Homo sapiens, UniProt Q16288); test: Trk phosphorylation and TrkC expression in TrkC stably-expressing NIH-3T3 cells; assay type: cell-based; details: 20 ng/mL
T2 construct: expressed in transfected cells; host or cells: NIH-3T3 fibroblasts

[4] = direct administration into the CNS; cited from earlier work

T2 sequence (Q16288 32-839, species assumed): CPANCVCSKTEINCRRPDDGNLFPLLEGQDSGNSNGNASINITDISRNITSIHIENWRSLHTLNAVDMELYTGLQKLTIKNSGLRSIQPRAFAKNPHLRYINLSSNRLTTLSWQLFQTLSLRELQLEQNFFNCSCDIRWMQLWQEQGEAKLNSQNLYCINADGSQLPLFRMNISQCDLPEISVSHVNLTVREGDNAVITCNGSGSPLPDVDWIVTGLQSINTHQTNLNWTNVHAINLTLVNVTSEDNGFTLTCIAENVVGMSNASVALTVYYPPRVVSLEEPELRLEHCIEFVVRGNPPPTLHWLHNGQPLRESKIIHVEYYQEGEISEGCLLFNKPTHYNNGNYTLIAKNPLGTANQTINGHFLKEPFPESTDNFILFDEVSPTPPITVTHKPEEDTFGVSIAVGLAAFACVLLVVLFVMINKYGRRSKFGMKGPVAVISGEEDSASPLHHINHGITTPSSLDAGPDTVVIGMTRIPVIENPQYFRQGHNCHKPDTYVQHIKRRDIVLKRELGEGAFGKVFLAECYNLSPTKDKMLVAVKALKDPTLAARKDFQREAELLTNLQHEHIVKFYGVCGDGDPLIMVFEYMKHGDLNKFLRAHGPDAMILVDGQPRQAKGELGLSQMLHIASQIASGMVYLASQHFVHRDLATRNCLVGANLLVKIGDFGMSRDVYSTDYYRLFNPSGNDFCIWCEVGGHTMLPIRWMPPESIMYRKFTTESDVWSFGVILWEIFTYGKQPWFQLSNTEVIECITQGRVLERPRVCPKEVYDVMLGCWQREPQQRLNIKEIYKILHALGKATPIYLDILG
T1 sequence (P15209 32-821): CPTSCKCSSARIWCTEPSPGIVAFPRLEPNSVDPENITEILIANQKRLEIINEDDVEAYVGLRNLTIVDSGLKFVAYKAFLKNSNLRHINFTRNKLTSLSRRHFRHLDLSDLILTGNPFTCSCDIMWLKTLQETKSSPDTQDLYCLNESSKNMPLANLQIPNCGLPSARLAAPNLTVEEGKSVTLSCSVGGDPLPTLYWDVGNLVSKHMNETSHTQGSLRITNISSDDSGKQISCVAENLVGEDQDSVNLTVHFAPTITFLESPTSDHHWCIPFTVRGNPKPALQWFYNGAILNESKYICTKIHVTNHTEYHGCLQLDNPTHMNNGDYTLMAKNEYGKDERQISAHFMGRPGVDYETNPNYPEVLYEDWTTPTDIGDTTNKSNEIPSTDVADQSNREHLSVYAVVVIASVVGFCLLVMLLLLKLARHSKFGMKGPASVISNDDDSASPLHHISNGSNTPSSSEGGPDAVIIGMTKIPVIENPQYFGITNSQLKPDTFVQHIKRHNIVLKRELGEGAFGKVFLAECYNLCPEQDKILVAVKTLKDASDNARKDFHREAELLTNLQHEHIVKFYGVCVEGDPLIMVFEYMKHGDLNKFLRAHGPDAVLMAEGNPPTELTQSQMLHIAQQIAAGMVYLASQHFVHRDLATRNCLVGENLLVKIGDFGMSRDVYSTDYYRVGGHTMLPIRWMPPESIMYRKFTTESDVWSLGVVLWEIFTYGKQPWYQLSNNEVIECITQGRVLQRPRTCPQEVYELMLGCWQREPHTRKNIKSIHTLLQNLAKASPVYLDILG

increase in the phosphorylation of the TrkB receptor ([2]; 5 min, without K252a): significant
activation of TrkB (pTrkB Tyr 706 normalized to total TrkB) ([2]; 1 h): strong and significant activation
B1: BDNF: Brain derived neurotrophic factor (Peprotech), used as a reference at 20 ng/ml and 100 ng/ml (protein, UniProt P23560 19-247, looked up)
Neurotrophic factor BDNF …: APMKEANIRGQGGLAYPGVRTHGTLESVNGPKAGSRGLTSLADTFEHVIEELLDEDQKVRPNEENNKDADLYTSRVMLSSQVPLEPPLLFLLEEYKNYLDAANMSMRVRRHSDPARRGELSVCDSISEWVTAADKKTAVDMSGGTVTVLEKVPVSKGQLKQYFYETKCNPMGYTKEGCRGIDKRHWNSQCRTTQSYVRALTMDSKKRIGWRFIRIDTSCVCTLTIKRGR
blood brain barrier (BBB) and intraparenchymal penetrations [1]: poor
plasma half-life [1]: less than 1 min
activation of TrkC receptor [3]: neither the peptides nor BDNF were able to activate this receptor
expression of TrkC [3]: neither BDNF (20 ng/mL) nor peptides B-5 (1 μM) and B-3 (1 μM) were able to modify the expression of TrkC
undesirable effects [4]: weight loss, dysaesthesias (impairment of sensation), and in some cases, pain
